The test deals with Human CAIX (carbonic anhydrase IX) (human) (UniProt Q16790). Kind of test: ELISA screening, biotinylated human CAIX 0.25 ug/ml, negative control wells.

“negative control of the ELISA screening of the maturated library (designed binder)” showed an absorbance at 450 nm of 0.1 AU.
